{"source": "patent US20260070987A1", "binders": {"B1": {"name": "equine IgG1 T286R (antibody, part only; not given: variable domains, not shown: another chain or arm of the molecule)", "constant": "ASTTAPKVFALAPGCGTTSDSTVALGCLVSGYFPEPVKVSWNSGSLTSGVHTFPSVLQSSGFYSLSSMVTVPASTWTSETYICNVVHAASNFKVDKRIEPIPDNHQKVCDMSKCPKCPAPELLGGPSVFIFPPNPKDTLMITRTPEVTCVVVDVSQENPDVKFNWYMDGVEVRRATTRPKEEQFNSTYRVVSVLRIQHQDWLSGKEFKCKVNNQALPQPIERTITKTKGRSQEPQVYVLAPHPDELSKSKVSVTCLVKDFYPPEINIEWQSNGQPELETKYSTTQAQQDSDGSYFLYSKLSVDRNRWQQGTTFTCGVMHEALHNHYTQKNVSKNPGK"}, "B2": {"name": "equine IgG1 T286V (antibody, part only; not given: Variable domains, not shown: another chain or arm of the molecule)", "constant": "B1 constant with R174V"}, "B3": {"name": "equine IgG1 T286S (antibody, part only; not given: Variable domains, not shown: another chain or arm of the molecule)", "constant": "B1 constant with R174S"}, "B4": {"name": "equine IgG4 N434P (antibody, part only; not given: variable domains, not shown: another chain or arm of the molecule)", "constant": "ASTTAPKVFPLASHSAATSGSTVALGCLVSSYFPEPVTVSWNSGALTSGVHTFPSVLQSSGLYSLSSMVTVPASSLKSQTYICNVAHPASSTKVDKKIVIKECNGGCPAECLQVGPSVFIFPPKPKDVLMISRTPTVTCVVVDVGHDFPDVQFNWYVDGVETHTATTEPKQEQFNSTYRVVSVLPIQHKDWLSGKEFKCKVNNKALPAPVERTISKPTGQPREPQVYVLAPHRDELSKNKVSVTCLVKDFYPTDIDIEWKSNGQPEPETKYSTTPAQLDSDGSYFLYSKLTVETNRWQQGTTFTCAVMHEALHPHYTEKSVSKSPGK"}, "B5": {"name": "equine IgG4 N434S (antibody, part only; not given: variable domains, not shown: another chain or arm of the molecule)", "constant": "B4 constant with P314S"}, "B6": {"name": "equine IgG4 Y436L (antibody, part only; not given: variable domains, not shown: another chain or arm of the molecule)", "constant": "B4 constant with P314N, Y316L"}, "B7": {"name": "equine IgG4 Y436E (antibody, part only; not given: variable domains, not shown: another chain or arm of the molecule)", "constant": "B4 constant with P314N, Y316E"}, "B8": {"name": "equine IgG4 N434V (antibody, part only; not given: Variable domains, not shown: another chain or arm of the molecule)", "constant": "B4 constant with P314V"}, "B9": {"name": "equine IgG4 Y436M (antibody, part only; not given: variable domains, not shown: another chain or arm of the molecule)", "constant": "B4 constant with P314N, Y316M"}, "B10": {"name": "equine IgG4 D312F (antibody, part only; not given: variable domains, not shown: another chain or arm of the molecule)", "constant": "B4 constant with D190F, P314N"}, "B11": {"name": "equine IgG4 D312I (antibody, part only; not given: Variable domains, not shown: another chain or arm of the molecule)", "constant": "B4 constant with D190I, P314N"}, "B12": {"name": "equine IgG4 D312E (antibody, part only; not given: variable domains, not shown: another chain or arm of the molecule)", "constant": "B4 constant with D190E, P314N"}, "B13": {"name": "equine IgG4 D312T (antibody, part only; not given: variable domains, not shown: another chain or arm of the molecule)", "constant": "B4 constant with D190T, P314N"}, "B14": {"name": "equine IgG4 D312A (antibody, part only; not given: variable domains, not shown: another chain or arm of the molecule)", "constant": "B4 constant with D190A, P314N"}, "B15": {"name": "equine IgG4 N434W (antibody, part only; not given: variable domains, not shown: another chain or arm of the molecule)", "constant": "B4 constant with P314W"}, "B16": {"name": "equine IgG4 Y436K (antibody, part only; not given: variable domains, not shown: another chain or arm of the molecule)", "constant": "B4 constant with P314N, Y316K"}, "B17": {"name": "equine IgG4 D312Y (antibody, part only; not given: variable domains, not shown: another chain or arm of the molecule)", "constant": "B4 constant with D190Y, P314N"}, "B18": {"name": "equine IgG4 D312L (antibody, part only; not given: variable domains, not shown: another chain or arm of the molecule)", "constant": "B4 constant with D190L, P314N"}, "B19": {"name": "equine IgG4 D312K (antibody, part only; not given: variable domains, not shown: another chain or arm of the molecule)", "constant": "B4 constant with D190K, P314N"}, "B20": {"name": "equine IgG4 D312R (antibody, part only; not given: variable domains, not shown: another chain or arm of the molecule)", "constant": "B4 constant with D190R, P314N"}, "B21": {"name": "equine IgG4 N434Q (antibody, part only; not given: variable domains, not shown: another chain or arm of the molecule)", "constant": "B4 constant with P314Q"}, "B22": {"name": "equine IgG4 D312S (antibody, part only; not given: variable domains, not shown: another chain or arm of the molecule)", "constant": "B4 constant with D190S, P314N"}, "B23": {"name": "equine IgG4 D312N (antibody, part only; not given: variable domains, not shown: another chain or arm of the molecule)", "constant": "B4 constant with D190N, P314N"}, "B24": {"name": "equine IgG4 D312M (antibody, part only; not given: variable domains, not shown: another chain or arm of the molecule)", "constant": "B4 constant with D190M, P314N"}, "B25": {"name": "equine IgG4 D312H (antibody, part only; not given: Variable domains, not shown: another chain or arm of the molecule)", "constant": "B4 constant with D190H, P314N"}, "B26": {"name": "equine IgG4 D312G (antibody, part only; not given: variable domains, not shown: another chain or arm of the molecule)", "constant": "B4 constant with D190G, P314N"}, "B27": {"name": "equine IgG4 Y436A (antibody, part only; not given: variable domains, not shown: another chain or arm of the molecule)", "constant": "B4 constant with P314N, Y316A"}, "B28": {"name": "equine IgG4 Y436F (antibody, part only; not given: variable domains, not shown: another chain or arm of the molecule)", "constant": "B4 constant with P314N, Y316F"}, "B29": {"name": "equine IgG4 D312Q (antibody, part only; not given: variable domains, not shown: another chain or arm of the molecule)", "constant": "B4 constant with D190Q, P314N"}, "B30": {"name": "equine IgG4 Y436H (antibody, part only; not given: variable domains, not shown: another chain or arm of the molecule)", "constant": "B4 constant with P314N, Y316H"}, "B31": {"name": "equine IgG4 Y436N (antibody, part only; not given: variable domains, not shown: another chain or arm of the molecule)", "constant": "B4 constant with P314N, Y316N"}, "B32": {"name": "equine IgG4 Y436D (antibody, part only; not given: variable domains, not shown: another chain or arm of the molecule)", "constant": "B4 constant with P314N, Y316D"}, "B33": {"name": "equine IgG4 D312P (antibody, part only; not given: Variable domains, not shown: another chain or arm of the molecule)", "constant": "B4 constant with D190P, P314N"}, "B34": {"name": "equine IgG4 N434Y (antibody, part only; not given: variable domains, not shown: another chain or arm of the molecule)", "constant": "B4 constant with P314Y"}, "B35": {"name": "equine IgG4 Y436I (antibody, part only; not given: variable domains, not shown: another chain or arm of the molecule)", "constant": "B4 constant with P314N, Y316I"}, "B36": {"name": "equine IgG4 D312C (antibody, part only; not given: variable domains, not shown: another chain or arm of the molecule)", "constant": "B4 constant with D190C, P314N"}, "B37": {"name": "equine IgG4 D312W (antibody, part only; not given: Variable domains, not shown: another chain or arm of the molecule)", "constant": "B4 constant with D190W, P314N"}, "B38": {"name": "equine IgG4 N434R (antibody, part only; not given: variable domains, not shown: another chain or arm of the molecule)", "constant": "B4 constant with P314R"}, "B39": {"name": "equine IgG4 Y436C (antibody, part only; not given: Variable domains, not shown: another chain or arm of the molecule)", "constant": "B4 constant with P314N, Y316C"}, "B40": {"name": "equine IgG4 D312V (antibody, part only; not given: variable domains, not shown: another chain or arm of the molecule)", "constant": "B4 constant with D190V, P314N"}, "B41": {"name": "equine IgG4 N434T (antibody, part only; not given: variable domains, not shown: another chain or arm of the molecule)", "constant": "B4 constant with P314T"}, "B42": {"name": "equine IgG4 Y436G (antibody, part only; not given: variable domains, not shown: another chain or arm of the molecule)", "constant": "B4 constant with P314N, Y316G"}}, "note": "Changes are numbered by the printed parent chain. Names may count otherwise.", "data": [{"molecular_target": "equine FcRn (large alpha subunit p51) / equine beta-2-microglobulin complex, biotinylated (equine) (UniProt P30441)", "sequence (P30441 21-118, one chain of several)": "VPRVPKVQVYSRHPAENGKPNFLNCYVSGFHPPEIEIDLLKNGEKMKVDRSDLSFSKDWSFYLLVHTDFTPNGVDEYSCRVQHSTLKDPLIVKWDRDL", "assay": "SPR (Biacore), pH 6", "units": {"Kd": "nM"}, "values": [{"binder": "B1", "Kd": 20.5}, {"binder": "B2", "Kd": 16.2}, {"binder": "B3", "Kd": 13.1}, {"binder": "B4", "Kd": 39.4}, {"binder": "B5", "Kd": 23.8}, {"binder": "B6", "Kd": 16}, {"binder": "B7", "Kd": 91.5}, {"binder": "B8", "Kd": 32.6}, {"binder": "B9", "Kd": 14.3}, {"binder": "B10", "Kd": 23}, {"binder": "B11", "Kd": 29.4}, {"binder": "B12", "Kd": 50.2}, {"binder": "B13", "Kd": 28.7}, {"binder": "B14", "Kd": 13.1}, {"binder": "B15", "Kd": 1.6}, {"binder": "B16", "Kd": 20.3}, {"binder": "B17", "Kd": 19.1}, {"binder": "B18", "Kd": 11.6}, {"binder": "B19", "Kd": 13.6}, {"binder": "B20", "Kd": 18.5}, {"binder": "B21", "Kd": 17.7}, {"binder": "B22", "Kd": 17.4}, {"binder": "B23", "Kd": 16.1}, {"binder": "B24", "Kd": 25}, {"binder": "B25", "Kd": 20.2}, {"binder": "B26", "Kd": 11.2}, {"binder": "B27", "Kd": 21.6}, {"binder": "B28", "Kd": 12.6}, {"binder": "B29", "Kd": 28.1}, {"binder": "B30", "Kd": 61.6}, {"binder": "B31", "Kd": 49.8}, {"binder": "B32", "Kd": 25.5}, {"binder": "B33", "Kd": 15.1}, {"binder": "B34", "Kd": 4.6}, {"binder": "B35", "Kd": 12}, {"binder": "B36", "Kd": 27.1}, {"binder": "B37", "Kd": 12.1}, {"binder": "B38", "Kd": 22.7}, {"binder": "B39", "Kd": 57}, {"binder": "B40", "Kd": 31.1}, {"binder": "B41", "Kd": 57.5}, {"binder": "B42", "Kd": 34.1}]}]}
